The results in this text go back to paper PMC11009412, “Pathogenic mutations of human phosphorylation sites affect protein–protein interactions” (Nature Communications, 2024).

In the assay the test system is BirA*-FLAG-GATAD1 variants in Flp-In-293 cells. In words: BioID proximity labelling of full-length GATAD1 variants (SILAC). The settings on record: GATAD1 WT vs S102P, significant proteins only; for Log2_Ratio.H.L.normalized.WT_S102P_forward: forward experiment (label swap performed, sign inverted against the H/L ratio); for Log2_Ratio.H.L.normalized.WT_S102P_forward / Log2_Ratio.H.L.normalized.WT_S102P_reverse: log2 of normalized H/L ratio; for Ratio.H.L.normalized.WT_S102P_forward: forward experiment; for Log2_Ratio.H.L.normalized.WT_S102P_reverse / Ratio.H.L.normalized.WT_S102P_reverse: reverse experiment. The class given is cell-based, human. The source says: The GATAD1 gene variants were ordered in a pTwist ENTR Kozak vector from Twist Bioscience. The genes were then transferred to a pDEST_pcDNA5_BirA_FLAG_Nterm vector[97] using the Gateway Clonase II system (Thermo Fisher Scientific). The resulting vectors, pEXPR_GATAD1-WT_N-term_BirA_FLAG, pEXPR_GATAD1-S102P_N-term_BirA_FLAG, pEXPR_GATAD1-S102D_N-term_BirA_FLAG, and pEXPR_GATAD1-S102A_N-term_BirA_FLAG, were used to generate tetracycline-inducible stable Flp-In^TM-293 T-REx cells. A 6-well plate was co-transfected with 0.5 µg of the pEXPR plasmid and 1 µg of the pOG44 Flp-recombinase expression vector (Thermo Fisher Scientific) using 4.5 µg of PEI (Polysciences) as a transfection reagent. The following day, the cells were trypsinized and transferred to a 10 cm dish containing DMEM supplemented with 10% FCS and 200 µg/ml hygromycin B (Invivogen) for selection. The cells were cultured for approximately 18 days with media exchange every 3 days until visible colonies were observed. After around 18 days, the colonies were trypsinized and transferred to another 10 cm dish for further characterization and experiments.
Stable Flp-In^TM-293 cell lines expressing GATAD1 variants were cultured using SILAC light (Lys0, Arg0) and SILAC heavy (Lys8, Arg10) media, as explained in the cell culture section. After full labeling, cells were split into 15 cm dishes and were treated with 1 μg/mL tetracycline for 24 h to induce the expression of GATAD1. After the induction period, cells were incubated with 50 μM biotin overnight for proximity biotinylation. As a control, wild-type GATAD1 cells, without biotin or tetracycline addition, were used. Samples were multiplexed, as shown in Supplementary Fig. 41A with both forward and reverse label swap (n = 2). Cells were then lysed in lysis buffer (50 mM Tris-HCl pH 7.5, 150 mM NaCl, 1% Triton X-100, 1 mM EDTA, 1 mM EGTA, 0.1% SDS) with freshly added protease inhibitors and 1% sodium deoxycholate. To digest the excess DNA, 1 μl of Benzonase was added, and the samples were incubated for 20 min at 37 °C. Biotinylated proteins were enriched for 3 h at 4 °C using streptavidin-sepharose beads (GE Cat# 17-5113-01). Beads were pre-washed twice with 0.01% BSA and twice with lysis buffer. After enrichment, the beads were washed one time with lysis buffer, two times with washing buffer (50 mM HEPES-KOH pH 8.0, 100 mM KCl, 10% glycerol, 2 mM EDTA, 0.1% NP-40), and six times with 50 mM ammonium bicarbonate. Beads were resuspended in ammonium bicarbonate, and an on-bead protein digest with 1 μg of trypsin followed overnight. The next day, the digested proteins were transferred to a fresh tube and were incubated with 10 mM DTT for 30 min at 37 °C and with 55 mM iodoacetamide for 20 min at 37 °C in the dark. Samples were desalted with StageTips.
Peptides were separated using reversed-phase liquid chromatography (EASY nLC II 1200, Thermo Fisher Scientific) with self-made C18 microcolumns (20 cm long) packed with ReproSil-Pur C18-AQ 1.9 μm resin (Dr. Maisch, cat# r119.aq.0001). The chromatography system was coupled online to the electrospray ion source (Proxeon) of an Orbitrap Exploris 480 mass spectrometer (Thermo Fisher Scientific). The mobile phase consisted of buffer A (0.1% formic acid and 5% acetonitrile) and buffer B (0.1% formic acid and 80% acetonitrile). Peptides were eluted using a gradient with increasing concentrations of buffer B over 110 minutes, at a flow rate of 250 nl/min. Mass spectrometry data was acquired in data-dependent mode with settings for one full scan (resolution: 60,000; m/z range: 350–1600; normalized AGC target: 300%; maximum injection time: 10 ms), followed by top 20 MS/MS scans using higher-energy collisional dissociation (resolution: 15,000; m/z range: 200–2000; normalized AGC target: 100%; maximum injection time: 120 ms; isolation width: 1.3 m/z; normalized collision energy: 28%).
Raw files were analyzed with MaxQuant, version 2.0.3.0. […]

B1: GTF2E1 (protein, UniProt P29083 2-439, looked up)
General transcription factor …: ADPDVLTEVPAALKRLAKYVIRGFYGIEHALALDILIRNSCVKEEDMLELLKFDRKQLRSVLNNLKGDKFIKCRMRVETAADGKTTRHNYYFINYRTLVNVVKYKLDHMRRRIETDERDSTNRASFKCPVCSSTFTDLEANQLFDPMTGTFRCTFCHTEVEEDESAMPKKDARTLLARFNEQIEPIYALLRETEDVNLAYEILEPEPTEIPALKQSKDHAATTAGAASLAGGHHREAWATKGPSYEDLYTQNVVINMDDQEDLHRASLEGKSAKERPIWLRESTVQGAYGSEDMKEGGIDMDAFQEREEGHAGPDDNEEVMRALLIHEKKTSSAMAGSVGAAAPVTAANGSDSESETSESDDDSPPRPAAVAVHKREEDEEEDDEFEEVADDPIVMVAGRPFSYSEVSQRPELVAQMTPEEKEAYIAMGQRMFEDLFE
Take B1: the Log2_Ratio.H.L.normalized.WT_S102P_forward was 1.078, the Ratio.H.L.normalized.WT_S102P_forward was determined as 0.4738, the Log2_Ratio.H.L.normalized.WT_S102P_reverse is recorded as 1.217 and the Ratio.H.L.normalized.WT_S102P_reverse amounted to 2.3239.

B2: TXNL1 (protein, UniProt O43396 2-289, looked up)
Thioredoxin-like protein 1: VGVKPVGSDPDFQPELSGAGSRLAVVKFTMRGCGPCLRIAPAFSSMSNKYPQAVFLEVDVHQCQGTAATNNISATPTFLFFRNKVRIDQYQGADAVGLEEKIKQHLENDPGSNEDTDIPKGYMDLMPFINKAGCECLNESDEHGFDNCLRKDTTFLESDCDEQLLITVAFNQPVKLYSMKFQGPDNGQGPKYVKIFINLPRSMDFEEAERSEPTQALELTEDDIKEDGIVPLRYVKFQNVNSVTIFVQSNQGEEETTRISYFTFIGTPVQATNMNDFKRVVGKKGESH
In the case of B2, the Log2_Ratio.H.L.normalized.WT_S102P_forward stood at 1.514, the Ratio.H.L.normalized.WT_S102P_forward is 0.3502, the Log2_Ratio.H.L.normalized.WT_S102P_reverse is 1.19 and the Ratio.H.L.normalized.WT_S102P_reverse was 2.2812.

B3: TMPO (protein, UniProt P42166 2-694, looked up)
Lamina-associated polypeptide …: PEFLEDPSVLTKDKLKSELVANNVTLPAGEQRKDVYVQLYLQHLTARNRPPLPAGTNSKGPPDFSSDEEREPTPVLGSGAAAAGRSRAAVGRKATKKTDKPRQEDKDDLDVTELTNEDLLDQLVKYGVNPGPIVGTTRKLYEKKLLKLREQGTESRSSTPLPTISSSAENTRQNGSNDSDRYSDNEEGKKKEHKKVKSTRDIVPFSELGTTPSGGGFFQGISFPEISTRPPLGSTELQAAKKVHTSKGDLPREPLVATNLPGRGQLQKLASERNLFISCKSSHDRCLEKSSSSSSQPEHSAMLVSTAASPSLIKETTTGYYKDIVENICGREKSGIQPLCPERSHISDQSPLSSKRKALEESESSQLISPPLAQAIRDYVNSLLVQGGVGSLPGTSNSMPPLDVENIQKRIDQSKFQETEFLSPPRKVPRLSEKSVEERDSGSFVAFQNIPGSELMSSFAKTVVSHSLTTLGLEVAKQSQHDKIDASELSFPFHESILKVIEEEWQQVDRQLPSLACKYPVSSREATQILSVPKVDDEILGFISEATPLGGIQAASTESCNQQLDLALCRAYEAAASALQIATHTAFVAKAMQADISQAAQILSSDPSRTHQALGILSKTYDAASYICEAAFDEVKMAAHTMGNATVGRRYLWLKDCKINLASKNKLASTPFKGGTLFGGEVCKVIKKRGNKH
As to B3, the Log2_Ratio.H.L.normalized.WT_S102P_forward turned out to be 1.365, the Ratio.H.L.normalized.WT_S102P_forward turned out to be 0.3882, the Log2_Ratio.H.L.normalized.WT_S102P_reverse is 1.174 and the Ratio.H.L.normalized.WT_S102P_reverse is recorded as 2.2568.

B4: TOX4 (protein, UniProt O94842 1-621, looked up)
TOX high mobility group box …: MEFPGGNDNYLTITGPSHPFLSGAETFHTPSLGDEEFEIPPISLDSDPSLAVSDVVGHFDDLADPSSSQDGSFSAQYGVQTLDMPVGMTHGLMEQGGGLLSGGLTMDLDHSIGTQYSANPPVTIDVPMTDMTSGLMGHSQLTTIDQSELSSQLGLSLGGGTILPPAQSPEDRLSTTPSPTSSLHEDGVEDFRRQLPSQKTVVVEAGKKQKAPKKRKKKDPNEPQKPVSAYALFFRDTQAAIKGQNPNATFGEVSKIVASMWDSLGEEQKQVYKRKTEAAKKEYLKALAAYKDNQECQATVETVELDPAPPSQTPSPPPMATVDPASPAPASIEPPALSPSIVVNSTLSSYVANQASSGAGGQPNITKLIITKQMLPSSITMSQGGMVTVIPATVVTSRGLQLGQTSTATIQPSQQAQIVTRSVLQAAAAAAAAASMQLPPPRLQPPPLQQMPQPPTQQQVTILQQPPPLQAMQQPPPQKVRINLQQQPPPLQIKSVPLPTLKMQTTLVPPTVESSPERPMNNSPEAHTVEAPSPETICEMITDVVPEVESPSQMDVELVSGSPVALSPQPRCVRSGCENPPIVSKDWDNEYCSNECVVKHCRDVFLAWVASRNSNTVVFVK
Turning to B4, the Log2_Ratio.H.L.normalized.WT_S102P_forward is on record as 1.265, the Ratio.H.L.normalized.WT_S102P_forward was determined as 0.416, the Log2_Ratio.H.L.normalized.WT_S102P_reverse is given as 1.044 and the Ratio.H.L.normalized.WT_S102P_reverse worked out at 2.0619.

B5: GSTP1 (protein, UniProt P09211 2-210, looked up)
Glutathione S-transferase P: PPYTVVYFPVRGRCAALRMLLADQGQSWKEEVVTVETWQEGSLKASCLYGQLPKFQDGDLTLYQSNTILRHLGRTLGLYGKDQQEAALVDMVNDGVEDLRCKYISLIYTNYEAGKDDYVKALPGQLKPFETLLSQNQGGKTFIVGDQISFADYNLLDLLLIHEVLAPGCLDAFPLLSAYVGRLSARPKLKAFLASPEYVNLPINGNGKQ
Regarding B5, the Log2_Ratio.H.L.normalized.WT_S102P_forward is recorded as -1.4183, the Ratio.H.L.normalized.WT_S102P_forward is given as 2.6727, the Log2_Ratio.H.L.normalized.WT_S102P_reverse was -1.579 and the Ratio.H.L.normalized.WT_S102P_reverse was 0.3348.

B6: GTF2E2 (protein, UniProt P29084 1-291, looked up)
Transcription initiation …: MDPSLLRERELFKKRALSTPVVEKRSASSESSSSSSKKKKTKVEHGGSSGSKQNSDHSNGSFNLKALSGSSGYKFGVLAKIVNYMKTRHQRGDTHPLTLDEILDETQHLDIGLKQKQWLMTEALVNNPKIEVIDGKYAFKPKYNVRDKKALLRLLDQHDQRGLGGILLEDIEEALPNSQKAVKALGDQILFVNRPDKKKILFFNDKSCQFSVDEEFQKLWRSVTVDSMDEEKIEEYLKRQGISSMQESGPKKVAPIQRRKKPASQKKRRFKTHNEHLAGVLKDYSDITSSK
Take B6: the Log2_Ratio.H.L.normalized.WT_S102P_forward amounted to 1.243, the Ratio.H.L.normalized.WT_S102P_forward turned out to be 0.4226, the Log2_Ratio.H.L.normalized.WT_S102P_reverse was determined as 1.178 and the Ratio.H.L.normalized.WT_S102P_reverse came to 2.2619.

B7: GTF2A1 (protein, UniProt P52655 2-376, looked up)
Transcription initiation …: ANSANTNTVPKLYRSVIEDVINDVRDIFLDDGVDEQVLMELKTLWENKLMQSRAVDGFHSEEQQLLLQVQQQHQPQQQQHHHHHHHQQAQPQQTVPQQAQTQQVLIPASQQATAPQVIVPDSKLIQHMNASNMSAAATAATLALPAGVTPVQQILTNSGQLLQVVRAANGAQYIFQPQQSVVLQQQVIPQMQPGGVQAPVIQQVLAPLPGGISPQTGVIIQPQQILFTGNKTQVIPTTVAAPTPAQAQITATGQQQPQAQPAQTQAPLVLQVDGTGDTSSEEDEDEEEDYDDDEEEDKEKDGAEDGQVEEEPLNSEDDVSDEEGQELFDTENVVVCQYDKIHRSKNKWKFHLKDGIMNLNGRDYIFSKAIGDAEW
With B7, the Log2_Ratio.H.L.normalized.WT_S102P_forward came out at 1.42, the Ratio.H.L.normalized.WT_S102P_forward turned out to be 0.3738, the Log2_Ratio.H.L.normalized.WT_S102P_reverse was found to be 1.224 and the Ratio.H.L.normalized.WT_S102P_reverse is on record as 2.3357.
